Assay results: paper PMC8231969, “Characterization of Two NMN Deamidase Mutants as Possible Probes for an NMN Biosensor” (International Journal of Molecular Sciences, 2021)
Where a chain is given by its changes, count along the chain named. In names and notes the source's numbering stands.

B1: NMN deamidase (PncC) from E. coli, wild type (enzyme, UniProt P0A6G3 1-165, looked up)
chain: MTDSELMQLSEQVGQALKARGATVTTAESCTGGWVAKVITDIAGSSAWFERGFVTYSNEAKAQMIGVREETLAQHGAVSEPVVVEMAIGALKAARADYAVSISGIAGPDGGSEEKPVGTVWFAFATARGEGITRRECFSGDRDAVRRQATAYALQTLWQQFLQNT
notes: NMN deamidase PncC (EC 3.5.1.42), E. coli; the enzyme consists of 165 residues, 17.6 kDa; expressed from pCA24N-pncC; also called WT PncC; wild-type PncC; source: E. coli BL21(DE3), purified (HisTrap HP column, dialysis); not shown: His tag (from the HisTrap HP purification)
B2: K61Q PncC (enzyme, E. coli, UniProt P0A6G3 1-165, looked up)
chain: B1 chain with K61Q
notes: NMN deamidase PncC (EC 3.5.1.42), E. coli; 165 residues; mutagenized pCA24N-pncC plasmid; also called PncC K61Q mutant; source: E. coli BL21(DE3), purified (HisTrap HP column, dialysis); not shown: His tag (from the HisTrap HP purification)
B3: K61Q PncC: catalytically inactive K61Q mutant of E. coli NMN deamidase PncC (protein)
chain: B1 chain with K61Q
modifications: left off: His tag (from the HisTrap HP purification; vector pCA24N), end not stated, state not stated
B4: WT PncC: wild type NMN deamidase (PncC) from E. coli, recombinant (protein)
chain: B1 chain
modifications: left off: His tag (from the HisTrap HP purification; vector pCA24N), end not stated, state not stated
notes: wild type NMN deamidase (PncC) from E. coli, recombinant
B5: S29A PncC (enzyme, E. coli, UniProt P0A6G3 1-165, looked up)
chain: B1 chain with S29A
notes: NMN deamidase PncC (EC 3.5.1.42), E. coli; 165 residues; mutagenized pCA24N-pncC plasmid; also called PncC S29A mutant; source: E. coli BL21(DE3), purified (HisTrap HP column, dialysis); not shown: His tag (from the HisTrap HP purification)
B6: S29A PncC: catalytically inactive S29A mutant of E. coli NMN deamidase PncC (protein)
chain: B1 chain with S29A
modifications: left off: His tag (from the HisTrap HP purification; vector pCA24N), end not stated, state not stated

What was measured:
[1] = target: the molecule itself; assay: SEC; gel filtration on Superose 12 HR 10/30, 50 mM HEPES pH 7.5, 0.3 M NaCl, 1 mM TCEP; 45 ug wild type, 30 ug mutants; calibrated with protein standards; self-association (dimer)
[2] = Thermal stability (melting temperature) of PncC proteins without ligand; format: physicochemical; conditions: absence of NMN
Method: Protein melting temperature (Tm) was determined by fluorescence-based thermal shift assay using fluoroprobe SYPRO Orange dye (Invitrogen, Waltham, MA, USA). The assay was performed in a RotorGene 3000 real-time PCR (Corbett, Biocompare, San Francisco, CA, USA). The assay mixture contained 50 mM Hepes/NaOH, pH 7.5, 300 mM NaCl, 1 mM TCEP, 1 μM protein, Sypro orange at 10-fold dilution from a 5000-fold stock, and the various ligands at the tested concentrations, in a final volume of 25 μL. The mixtures were pre-heated at 40 °C for 5 s, then heated to 50 °C in 1 s, and finally heated from 50 to 99 °C with a heating-up rate of 0.5 °C every 5 s. The fluorescence intensity was measured with Ex/Em: 470/585 nm. The melting temperature was determined by taking the maximum point of the slope-derivative peak. Kd values were determined by plotting the percentage of unfolded proteins as a function of nucleotide concentration at a fixed temperature, after normalization of the unfolding curves. Fitting of the data was performed using the equations reported in [34]. Three independent experiments were carried out and values were reported as the means ± standard deviation.

| Molecule | stoichiometry N [1] | Tm (melting temperature of the protein) [2] |
| --- | --- | --- |
| B1 | 2 | – |
| B2 | 2 | – |
| B3 | – | 67.5 °C |
| B4 | – | 86.1 °C |
| B5 | 2 | – |
| B6 | – | 85.5 °C |
